Test results from article PMC11452297.

Target: C-terminal domain of FusB (residues 224-324) (Pectobacterium carotovorum)
Experiment: ITC; 480 uM PM1 in the syringe titrated into 20 uM FusB in the cell; VP-ITC, 25 °C, 20 mM sodium phosphate pH 7.5, 150 mM NaCl

Pectocin M1 (natural protein)
Kd: 8.1 µM | dH: -6 kcal/mol
